For assay [1], the target named is T1, rhesus monkey MUC16 protein (ECT_TM RhMuc16) on 293T cells (rhesus monkey).
T1 chain: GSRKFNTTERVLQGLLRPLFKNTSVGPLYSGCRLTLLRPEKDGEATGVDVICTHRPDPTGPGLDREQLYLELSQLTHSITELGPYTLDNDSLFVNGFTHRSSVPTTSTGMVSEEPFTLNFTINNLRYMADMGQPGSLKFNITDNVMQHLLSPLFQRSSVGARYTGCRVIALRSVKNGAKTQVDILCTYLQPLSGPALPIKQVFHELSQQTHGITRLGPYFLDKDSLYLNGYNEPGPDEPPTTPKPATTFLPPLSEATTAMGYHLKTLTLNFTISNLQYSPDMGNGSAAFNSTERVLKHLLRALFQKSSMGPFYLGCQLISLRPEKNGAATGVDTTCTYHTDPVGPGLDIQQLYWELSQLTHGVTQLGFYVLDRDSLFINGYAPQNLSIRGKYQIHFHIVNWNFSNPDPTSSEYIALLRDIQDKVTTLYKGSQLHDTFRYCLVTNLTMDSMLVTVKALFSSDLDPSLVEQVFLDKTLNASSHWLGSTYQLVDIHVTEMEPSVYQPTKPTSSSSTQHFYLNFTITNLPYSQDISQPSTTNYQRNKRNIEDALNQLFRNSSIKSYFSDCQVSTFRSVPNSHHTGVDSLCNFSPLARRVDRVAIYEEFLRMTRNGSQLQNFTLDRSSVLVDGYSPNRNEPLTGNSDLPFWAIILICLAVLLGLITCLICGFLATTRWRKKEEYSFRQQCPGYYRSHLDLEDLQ
Kind of assay: flow cytometry, 293T/rhesus MUC16 cells as printed on the sheet and in the legend (the example, paragraph 611, speaks of cynomolgus MUC16), PE anti-human IgG Fc secondary, MFI; EC50 table under the plot, unit from the axis Conc.(nM); curve still rising at the top concentration of 100 nM. As for the experimental part: (§1) Referring to the flow cytometry described above, the serially diluted test bispecific antibody (at an initial concentration of 100 nM, 5-fold dilution, 9 points) was added to the cells, and the plate was incubated at 4° C. for 30 min. The cells were washed twice with PBS, and then fluorescent secondary antibody R-PE-conjugated AffiniPure Goat Anti-Human IgG, Fcγ Fragment Specific was added. The cells were incubated at 4° C. for 30 min. The cells were washed twice with PBS and then resuspended, and finally, fluorescence signals were detected using a BD Accuri C5 (BD Bioscience) flow cytometer.
(Flow cytometry measures light scatter and fluorescence of single cells or particles in a stream.)

Assay [2] addresses T2, human MUC16 protein endogenously expressed on cells (human, UniProt Q8WXI7 1-14507).
T2 construct: whole, on cells; also called MUC16 on OVCAR3 cells; MUC16 in ovarian carcinoma tissue
Kind of assay: flow cytometry, OVCAR3 cells (endogenous human MUC16), PE anti-human IgG Fc secondary, MFI; EC50 table under the plot, unit from the axis Conc.(nM). As for the experimental part:
(1) Whether the anti-CD3/anti-MUC16 bispecific antibodies in the present invention could bind to the MUC16 protein endogenously expressed on human ovarian carcinoma cells (OVCAR3) (Cell Bank of Type Culture Collection Committee of the Chinese Academy of Sciences, Cat #TCHu228) was determined by cell binding experiments.
The experiments were performed using flow cytometry. OVCAR3 cells were digested, centrifuged and collected. The cells were resuspended in a PBS solution, and seeded into a 96-well plate (Corning, Cat #3799) at 1×10⁵ cells/well. The 96-well plate was centrifuged and then the supernatant was discarded. 100 μL of the serially diluted test bispecific antibody (at a maximum concentration of 200 nM, 5-fold dilution from 100 nM, 9 concentration points in total) was added to the OVCAR3 cells. The plate was incubated at 4° C. for 30 min and centrifuged (1000 rpm, 5 min), and then the supernatant was discarded. 100 μL of PBS solution was added to each well, and the cells were washed twice. 100 μL of fluorescent secondary antibody R-PE-conjugated AffiniPure Goat Anti-Human IgG, Fcγ Fragment Specific (Jackson ImmunoResearch, Cat #109-116-098) diluted in a ratio of 1:200 was then added. The cells were incubated at 4° C. for 30 min. After the cells were washed twice with the PBS solution, 100 μL of PBS solution was added to each well to resuspend the cells, and finally, fluorescence signals were detected using a BD Accuri C5 (BD Bioscience) flow cytometer according to the manufacturer's instructions. REGN4018 was used as a positive control.

The target of assay [3] is T3, human CD3 protein endogenously expressed on Jurkat cells (human, UniProt P07766 23-207).
T3 construct: whole, on cells; The whole CD3 complex is on the cells; also called CD3 on Jurkat cells; CD3 on Jurkat/NFAT-luc cells
Nature of the assay: flow cytometry, Jurkat cells (endogenous CD3), PE anti-human IgG Fc secondary, MFI; EC50 table under the plot, unit from the axis Conc.(nM). As for the experimental part: (§2) (3) Whether the anti-CD3/anti-MUC16 bispecific antibodies in the present invention could bind to the CD3 protein endogenously expressed on Jurkat cells (Cell Bank of Type Culture Collection Committee of the Chinese Academy of Sciences, Cat #SCSP-513) was determined by cell binding experiments. Detection was performed using the flow cytometry described above, with the following differences: the dilution gradient for the test bispecific antibody was: a maximum concentration of 200 nM, starting from a second concentration of 100 nM, 5-fold dilution, 10 points; the bispecific antibodies were added to Jurkat cells, and the cells were incubated at 4° C. for 30 min. The cells were washed twice with PBS, and then fluorescent secondary antibody R-PE-conjugated AffiniPure Goat Anti-Human IgG, Fcγ Fragment Specific was added. The cells were incubated at 4° C. for 30 min. The cells were washed twice with PBS and then resuspended, and finally, fluorescence signals were detected using a BD Accuri C5 (BD Bioscience) flow cytometer.

For assay [4], the target named is T3, human CD3 protein endogenously …. Nature of the assay: flow cytometry, Jurkat cells (endogenous CD3), PE anti-human IgG Fc secondary, MFI; EC50 table under the plot, unit from the axis Conc.(nM); curve still rising at the top concentration. As for the experimental part:
as §2

Assay [5] has as its target T1, rhesus monkey MUC16 protein (ECT_TM …). Nature of the assay: flow cytometry, 293T/rhesus MUC16 cells as printed on the sheet and in the legend (the example, paragraph 611, speaks of cynomolgus MUC16), PE anti-human IgG Fc secondary, MFI; EC50 table under the plot, unit from the axis Conc.(nM); curve still rising at the top concentration of 100 nM, the value lies beyond the range shown. Here is the method: as §1

For 2 molecules, EC50 results are on record in patent US20250092135A1 (NANJING LEADS BIOLABS, published 2025).

Usually EC50 stands for the concentration giving half of the maximal effect.

T3 sequence (P07766 23-207): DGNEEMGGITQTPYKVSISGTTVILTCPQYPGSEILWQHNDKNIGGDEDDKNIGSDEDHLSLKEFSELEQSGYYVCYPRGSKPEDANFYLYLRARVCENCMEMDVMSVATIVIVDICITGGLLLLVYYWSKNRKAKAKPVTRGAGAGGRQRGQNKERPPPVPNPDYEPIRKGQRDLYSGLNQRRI

B1: anti-CD3/MUC16 bispecific antibody 2MCH7-23L2 (bispecific antibody, human IgG1, kappa, L234A L235A)
heavy 1: not shown
heavy 2: EVQLVESGGGLVQPGGSLKLSCAASGFTFSTYAMNWVRQAPGKGLEWVGRIRSKYNNYATYYADSVKDRFTISRDDSKNTLYLQMNSLKTEDTAVYYCTRHGNFGNSYVSWFAYWGQGTTVTVSSGGGGSGGGGSGGGGSQAVVTQEPSLTVSPGGTVTLTCRSSTGAVTTSNYANWVQQKPGQAPRGLIGGTNKRAPGVPARFSGSLLGGKAALTLSGAQPEDEAEYFCALWYSNLWVFGGGTKLTVLGEPKSSDKTHTCPPCPAPEAAGGPSVFLFPPKPKDTLMISRTPEVTCVVVAVSHEDPEVKFNWYVDGVEVHNAKTKPREEQYNSTYRVVSVLTVLHQDWLNGKEYKCKVSNKALAAPIEKTISKAKGQPREPQVCTLPPSRDELTKNQVSLSCAVKGFYPSDIAVEWESNGQPENNYKTTPPVLDSDGSFFLVSKLTVDKSRWQQGNVFSCSVMHEALHNHYTQKSLSLSPGK
light: EIVLTQSPATLSLSPGERATLSCRASSSVIYMSWYQQKPGQAPRLLIYGTSTLASGIPARFSGSGSGTDFTLTISSLEPEDFAVYYCQQWSSNPFTFGQGTKLEIKRTVAAPSVFIFPPSDEQLKSGTASVVCLLNNFYPREAKVQWKVDNALQSGNSQESVTEQDSKDSTYSLSSTLTLSKADYEKHKVYACEVTHQGLSSPVTKSFNRGEC
notes: 2MCH7-KIH-Knob (VH-CH1-VH-CH1-Fc) + 23L2ScFv-Hole + two light chains MCL4 LC
Regarding B1, the results for the concentration giving a half-maximal response (EC50) in assay [1], in assay [2] and in assay [3] were 48.4 nM, 2.78 nM and 14 nM, respectively.

B2: anti-CD3/MUC16 bispecific antibody MCH7-23L2 (bispecific antibody, human IgG1, kappa, L234A L235A)
heavy 1: EVQLVESGGGLVQPGGSLKLSCAASGFTFSTYAMNWVRQAPGKGLEWVGRIRSKYNNYATYYADSVKDRFTISRDDSKNTLYLQMNSLKTEDTAVYYCTRHGNFGNSYVSWFAYWGQGTTVTVSSGGGGSGGGGSGGGGSQAVVTQEPSLTVSPGGTVTLTCRSSTGAVTTSNYANWVQQKPGQAPRGLIGGTNKRAPGVPARFSGSLLGGKAALTLSGAQPEDEAEYFCALWYSNLWVFGGGTKLTVLGEPKSSDKTHTCPPCPAPEAAGGPSVFLFPPKPKDTLMISRTPEVTCVVVAVSHEDPEVKFNWYVDGVEVHNAKTKPREEQYNSTYRVVSVLTVLHQDWLNGKEYKCKVSNKALAAPIEKTISKAKGQPREPQVCTLPPSRDELTKNQVSLSCAVKGFYPSDIAVEWESNGQPENNYKTTPPVLDSDGSFFLVSKLTVDKSRWQQGNVFSCSVMHEALHNHYTQKSLSLSPGK
heavy 2: not shown
light: EIVLTQSPATLSLSPGERATLSCRASSSVIYMSWYQQKPGQAPRLLIYGTSTLASGIPARFSGSGSGTDFTLTISSLEPEDFAVYYCQQWSSNPFTFGQGTKLEIKRTVAAPSVFIFPPSDEQLKSGTASVVCLLNNFYPREAKVQWKVDNALQSGNSQESVTEQDSKDSTYSLSSTLTLSKADYEKHKVYACEVTHQGLSSPVTKSFNRGEC
notes: 23L2ScFv-Hole + MCH7-KIH-Knob + one light chain MCL4 LC
For B2, the concentration for a half-maximal effect (EC50) turned out to be 70.7 nM in assay [4], 182 nM in assay [5] and 17.2 nM in assay [2].
